Reference: paper doi:10.1101/2023.12.08.570889 (bioRxiv, 2023)

Legend:
Assay in all cases: SPR
IL36R = IL36R (Homo sapiens (assumed), UniProt Q9HB29)
CD40 = CD40 (Homo sapiens (assumed), UniProt P25942)
IL17A = IL17A (Homo sapiens (assumed), UniProt Q16552)
IL17A, sequence (Q16552 24-155): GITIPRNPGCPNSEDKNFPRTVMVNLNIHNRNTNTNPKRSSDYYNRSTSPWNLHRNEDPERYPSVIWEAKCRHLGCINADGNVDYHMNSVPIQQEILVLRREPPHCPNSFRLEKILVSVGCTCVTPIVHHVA

IL36R, sequence (Q9HB29 20-335): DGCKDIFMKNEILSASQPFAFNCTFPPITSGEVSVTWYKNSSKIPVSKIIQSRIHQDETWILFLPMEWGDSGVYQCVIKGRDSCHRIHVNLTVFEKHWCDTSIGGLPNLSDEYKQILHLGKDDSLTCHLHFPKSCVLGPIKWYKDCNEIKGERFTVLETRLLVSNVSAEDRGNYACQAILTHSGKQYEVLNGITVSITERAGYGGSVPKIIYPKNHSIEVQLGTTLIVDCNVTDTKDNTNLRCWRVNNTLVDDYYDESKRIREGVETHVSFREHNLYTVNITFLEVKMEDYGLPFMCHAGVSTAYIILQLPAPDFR
CD40, sequence (P25942 21-193): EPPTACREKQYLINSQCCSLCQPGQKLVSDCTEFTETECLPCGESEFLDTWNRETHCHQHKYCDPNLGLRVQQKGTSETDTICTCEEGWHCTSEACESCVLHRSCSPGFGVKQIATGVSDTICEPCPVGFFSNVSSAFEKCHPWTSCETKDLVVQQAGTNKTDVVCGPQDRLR

B1: Spesolimab (Fab, V domains shown)
VH: QVQLVQSGAEVKKPGASVKVSCKASGYSFTSSWIHWVKQAPGQGLEWMGEINPGNVRTNYNENFRNKVTMTVDTSISTAYMELSRLRSDDTAVYYCTVVFYGEPYFPYWGQGTLVTVSS
VL: QIVLTQSPGTLSLSPGERATMTCTASSSVSSSYFHWYQQKPGQAPRLWIYRTSRLASGVPDRFSGSGSGTDFTLTISRLEPEDAATYYCHQFHRSPLTFGAGTKLEIK
B1: binds (IL36R).

B2: Ravagalimab (Fab, V domains shown)
VH: EVQLVESGGGLVKPGGSLRLSCAASGFTFSDYGMNWVRQAPGKGLEWIAYISSGRGNIYYADTVKGRFTISRDNAKNSLYLQMNSLRAEDTAVYYCARSWGYFDVWGQGTTVTVSS
VL: DIVMTQSPDSLAVSLGERATINCKSSQSLLNRGNQKNYLTWFQQKPGQPPKLLIYWASTRESGVPDRFSGSGSGTDFTLTISSLQAEDVAVYYCQNDYTYPLTFGQGTKLEIK
B2: binds (CD40).

B3: Afasevikumab (Fab, V domains shown)
VH: EVQLVESGGGLVQPGRSLRLSCAASGFTFDDYAMHWVRQAPGKGLEWVSGINWSSGGIGYADSVKGRFTISRDNAKNSLYLQMNSLRAEDTALYYCARDIGGFGEFYWNFGLWGRGTLVTVSS
VL: not shown
B3: binds (IL17A).
